This note sets out measurements from article PMC7116837 (Nature microbiology, 2021).

Assay [1] deals with Variant Surface Glycoprotein VSGsur, N-terminal domain (T. brucei rhodesiense). The assay can be described thus: crystal structure.
Assay [2] has as its target T1, VSGsur (Variant Surface Glycoprotein VSGsur) (Trypanosoma brucei, UniProt A0A291L8F4).
T1 sequence (A0A291L8F4 30-408): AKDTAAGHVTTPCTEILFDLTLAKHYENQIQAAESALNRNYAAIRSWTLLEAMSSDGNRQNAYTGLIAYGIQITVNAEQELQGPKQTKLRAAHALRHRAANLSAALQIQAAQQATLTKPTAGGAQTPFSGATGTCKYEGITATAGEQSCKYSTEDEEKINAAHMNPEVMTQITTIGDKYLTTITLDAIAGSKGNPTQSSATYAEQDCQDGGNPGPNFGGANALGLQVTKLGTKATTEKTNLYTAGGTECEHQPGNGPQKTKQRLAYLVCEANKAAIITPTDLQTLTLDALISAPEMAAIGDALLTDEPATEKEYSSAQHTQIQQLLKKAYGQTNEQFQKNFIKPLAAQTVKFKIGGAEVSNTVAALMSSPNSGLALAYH
Put plainly: crystal structure. In kind it is binding.

For assay [3], the target named is Variant Surface Glycoprotein VSG13, N-terminal domain (T. brucei brucei Lister 427). Put plainly: crystal structure.
Assay [4] deals with T2, VSGsur (Variant Surface Glycoprotein VSGsur) (Trypanosoma brucei, UniProt A0A291L8F4).
T2 sequence (A0A291L8F4 30-475): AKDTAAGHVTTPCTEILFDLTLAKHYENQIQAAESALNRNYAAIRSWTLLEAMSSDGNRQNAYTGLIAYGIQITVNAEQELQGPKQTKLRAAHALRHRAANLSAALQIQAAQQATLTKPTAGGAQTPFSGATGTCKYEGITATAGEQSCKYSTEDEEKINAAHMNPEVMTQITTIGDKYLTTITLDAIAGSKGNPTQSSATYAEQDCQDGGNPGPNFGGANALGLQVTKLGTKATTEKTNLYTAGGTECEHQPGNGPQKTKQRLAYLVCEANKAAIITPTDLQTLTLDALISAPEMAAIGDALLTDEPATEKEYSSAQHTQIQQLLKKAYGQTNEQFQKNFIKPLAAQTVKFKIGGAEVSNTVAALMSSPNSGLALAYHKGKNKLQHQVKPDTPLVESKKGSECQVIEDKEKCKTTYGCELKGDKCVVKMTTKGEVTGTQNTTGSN
Put plainly: ITC and […] Å co-crystal structure. Type of assay: binding.

“Variant Surface Glycoprotein VSGsur, N-terminal domain (domain or fragment)” yielded a stoichiometry N in assay [1] of 2.
Consider `Nc1c(I)c(C(=O)O)c(I)c(C(=O)O)c1I` [I3C, 5-amino-2,4,6-triiodoisophthalic acid], for which the “crystal structure (50 mM overnight soak, phasing compound)” value in assay [2] was “occupies the same position as the suramin benzene groups, stacking similarly with H122”.
In the case of “Variant Surface Glycoprotein VSG13, N-terminal domain (domain or fragment)”, the stoichiometry N in assay [3] came to 2.
Consider `Cc1ccc(C(=O)Nc2ccc(S(=O)(=O)O)c3cc(S(=O)(=O)O)cc(S(=O)(=O)O)c23)cc1NC(=O)c1cccc(NC(=O)Nc2cccc(C(=O)Nc3cc(C(=O)Nc4ccc(S(=O)(=O)O)c5cc(S(=O)(=O)O)cc(S(=O)(=O)O)c45)ccc3C)c2)c1` [suramin], for which the affinity in assay [4], expressed as Kd, was 234 ± 28 nM.
